These results are taken from patent publication EP3330286A1.

Common to all, as to test: indirect ELISA, antigen coated, negative control
In general terms: ELISA stands for enzyme-linked immunosorbent assay.

The target of assay [1] is p22 immunogenic composition.
The target of assay [2] is p10 protein (ESAT-6) (Mycobacterium bovis) (UniProt P0A565).
Assay [3] addresses bovine tuberculin purified protein derivative (PPDb).
In assay [4] the target is MPB83 recombinant protein (Mycobacterium bovis) (UniProt P0CAX7).
In assay [5] the target is mixture of MPB70 and MPB83 recombinant proteins.
The target of assay [6] is MPB70 recombinant protein (Mycobacterium bovis) (UniProt P0A669).
Sequence of UniProt P0A669 (P0A669 31-193 limits assumed): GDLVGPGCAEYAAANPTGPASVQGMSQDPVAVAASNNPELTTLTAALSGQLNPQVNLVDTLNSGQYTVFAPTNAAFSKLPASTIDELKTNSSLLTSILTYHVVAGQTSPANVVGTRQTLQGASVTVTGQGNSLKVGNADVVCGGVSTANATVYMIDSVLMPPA

Sequence of UniProt P0CAX7 (P0CAX7 25-220 limits assumed): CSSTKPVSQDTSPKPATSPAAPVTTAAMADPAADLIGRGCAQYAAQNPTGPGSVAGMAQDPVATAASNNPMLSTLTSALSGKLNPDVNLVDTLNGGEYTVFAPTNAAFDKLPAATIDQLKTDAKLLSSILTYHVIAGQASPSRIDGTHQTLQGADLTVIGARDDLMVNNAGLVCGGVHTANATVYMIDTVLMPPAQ
Sequence of UniProt P0A565 (P0A565 2-95 limits assumed): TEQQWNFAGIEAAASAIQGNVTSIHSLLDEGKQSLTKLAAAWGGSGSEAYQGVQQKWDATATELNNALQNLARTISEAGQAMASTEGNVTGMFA

Turning to Control -, the optical density in assay [1] was 0.07 OD; in assay [2] it was 0.06 OD; in assay [3], 0.06 OD; in assay [4] it was 0.07 OD; in assay [5], 0.07 OD; in assay [6], 0.08 OD.
